Experimental findings from the supplement of paper PMC6755084 are described below.

Sequences and labels used below:
B1: F1*; the commonest letter at each place (parent)
chain: GAGACCGCAACTGAAAAGTTGTTATCACTTGTCGTAAGACACTTTGGATGGGTTGAAGTTCTGCACGTAGAAGCAAAAGGC

This data set covers variants of B1. Briefly: fraction ligated after 30 min (ligated reads / total reads); higher = more ligase activity. Conditions: with F1*sub RNA substrate (template-directed ligation), 42 °C. The procedure, abridged: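 Oligo-pool templates underwent PCR amplification, T7 transcription and gel purification to yield ribozyme variants. Gel-separated ligated and unligated bands were converted to complementary DNA with barcoded primers and sequenced on a MiSeq, keeping core bases of quality ≥20. The ratio of ligated reads to total reads gave the fraction ligated for every variant.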
In the case of GAGACCGCAACTGAAAAGTTGTTATCACTTGACGTAAGACACTTTGCATGGGTTGAAGTTCTGCACGTAGAAGCAAAAGGC [T32A G47C], the fraction ligated turned out to be 0.102.

On to GAGACCGCAACTGAAAAGTTGTTATCACTTGACGTAAGACACTTTGAATGGGTTGAAGTTCTGCACGTAGAAGCAAAAGGC [T32A G47A], for which the fraction ligated was determined as 0.597.

For GAGACCGCAACTGAAAAGTTGTTATCACTTGACGTAAGACACTTTGTATGGGTTGAAGTTCTGCACGTAGAAGCAAAAGGC [T32A G47T], the fraction ligated came to 0.104.

For the variant GAGACCGCAACTGAAAAGTTGTTATCACTTGACGTAAGACACTATGGATGGGTTGAAGTTCTGCACGTAGAAGCAAAAGGC [T32A T44A], the fraction ligated came to 0.819.

With GAGACCGCAACTGAAAAGTTGTTATCACTTGACGTAAGACACTGTGGATGGGTTGAAGTTCTGCACGTAGAAGCAAAAGGC [T32A T44G], the fraction ligated amounted to 0.814.

As for GAGACCGCAACTGAAAAGTTGTTATCACTTGACGTAAGACACTCTGGATGGGTTGAAGTTCTGCACGTAGAAGCAAAAGGC [T32A T44C], the fraction ligated turned out to be 0.82.

Take GAGACCGCAACTGAAAAGTTGTTATCACTTGACGTAAGACACTTTGGATCGGTTGAAGTTCTGCACGTAGAAGCAAAAGGC [T32A G50C]: the fraction ligated amounted to 0.0632.

Turning to GAGACCGCAACTGAAAAGTTGTTATCACTTGACGTAAGACACTTTGGATAGGTTGAAGTTCTGCACGTAGAAGCAAAAGGC [T32A G50A], the fraction ligated was found to be 0.232.

Take GAGACCGCAACTGAAAAGTTGTTATCACTTGACGTAAGACACTTTGGATTGGTTGAAGTTCTGCACGTAGAAGCAAAAGGC [T32A G50T]: the fraction ligated is 0.454.

Turning to GAGACCGCAACTGAAAAGTTGTTATCACTTGACGTAAGACACTTTCGATGGGTTGAAGTTCTGCACGTAGAAGCAAAAGGC [T32A G46C], the fraction ligated is 0.778.

As for GAGACCGCAACTGAAAAGTTGTTATCACTTGACGTAAGACACTTTAGATGGGTTGAAGTTCTGCACGTAGAAGCAAAAGGC [T32A G46A], the fraction ligated came out at 0.81.

For the variant GAGACCGCAACTGAAAAGTTGTTATCACTTGACGTAAGACACTTTTGATGGGTTGAAGTTCTGCACGTAGAAGCAAAAGGC [T32A G46T], the fraction ligated came to 0.787.

As to GAGACCGCAACTGAAAAGTTGTTATCACTTGACGTAAGACAGTTTGGATGGGTTGAAGTTCTGCACGTAGAAGCAAAAGGC [T32A C42G], the fraction ligated came to 0.861.

In the case of GAGACCGCAACTGAAAAGTTGTTATCACTTGACGTAAGACATTTTGGATGGGTTGAAGTTCTGCACGTAGAAGCAAAAGGC [T32A C42T], the fraction ligated is 0.845.

As to GAGACCGCAACTGAAAAGTTGTTATCACTTGACGTAAGACAATTTGGATGGGTTGAAGTTCTGCACGTAGAAGCAAAAGGC [T32A C42A], the fraction ligated amounted to 0.843.

Regarding GAGACCGCAACTGAAAAGTTGTTATCACTTGACGGAAGACACTTTGGATGGGTTGAAGTTCTGCACGTAGAAGCAAAAGGC [T32A T35G], the fraction ligated amounted to 0.812.

As for GAGACCGCAACTGAAAAGTTGTTATCACTTGACGCAAGACACTTTGGATGGGTTGAAGTTCTGCACGTAGAAGCAAAAGGC [T32A T35C], the fraction ligated was determined as 0.829.

For the variant GAGACCGCAACTGAAAAGTTGTTATCACTTGACGAAAGACACTTTGGATGGGTTGAAGTTCTGCACGTAGAAGCAAAAGGC [T32A T35A], the fraction ligated amounted to 0.855.

Take GAGACCGCAACTGAAAAGTTGTTATCACTTGACGTAAGACACTTTGGATGGGTTCAAGTTCTGCACGTAGAAGCAAAAGGC [T32A G55C]: the fraction ligated was 0.562.

With GAGACCGCAACTGAAAAGTTGTTATCACTTGACGTAAGACACTTTGGATGGGTTTAAGTTCTGCACGTAGAAGCAAAAGGC [T32A G55T], the fraction ligated came to 0.826.

For GAGACCGCAACTGAAAAGTTGTTATCACTTGACGTAAGACACTTTGGATGGGTTAAAGTTCTGCACGTAGAAGCAAAAGGC [T32A G55A], the fraction ligated was 0.817.

On to GAGACCGCAACTGAAAAGTTGTTATCACTTGACGTAAGACACATTGGATGGGTTGAAGTTCTGCACGTAGAAGCAAAAGGC [T32A T43A], for which the fraction ligated was determined as 0.831.

On to GAGACCGCAACTGAAAAGTTGTTATCACTTGACGTAAGACACCTTGGATGGGTTGAAGTTCTGCACGTAGAAGCAAAAGGC [T32A T43C], for which the fraction ligated was 0.812.

Take GAGACCGCAACTGAAAAGTTGTTATCACTTGACGTAAGACACGTTGGATGGGTTGAAGTTCTGCACGTAGAAGCAAAAGGC [T32A T43G]: the fraction ligated was 0.789.

For GAGACCGCAACTGAAAAGTTGTTATCACTTGACGTAATACACTTTGGATGGGTTGAAGTTCTGCACGTAGAAGCAAAAGGC [T32A G38T], the fraction ligated came out at 0.825.

For the variant GAGACCGCAACTGAAAAGTTGTTATCACTTGACGTAACACACTTTGGATGGGTTGAAGTTCTGCACGTAGAAGCAAAAGGC [T32A G38C], the fraction ligated worked out at 0.82.

Regarding GAGACCGCAACTGAAAAGTTGTTATCACTTGACGTAAAACACTTTGGATGGGTTGAAGTTCTGCACGTAGAAGCAAAAGGC [T32A G38A], the fraction ligated was found to be 0.861.

For GAGACCGCAACTGAAAAGTTGTTATCACTTGACGTAAGACACTTAGGATGGGTTGAAGTTCTGCACGTAGAAGCAAAAGGC [T32A T45A], the fraction ligated came to 0.763.

Take GAGACCGCAACTGAAAAGTTGTTATCACTTGACGTAAGACACTTCGGATGGGTTGAAGTTCTGCACGTAGAAGCAAAAGGC [T32A T45C]: the fraction ligated turned out to be 0.358.

As for GAGACCGCAACTGAAAAGTTGTTATCACTTGACGTAAGACACTTGGGATGGGTTGAAGTTCTGCACGTAGAAGCAAAAGGC [T32A T45G], the fraction ligated turned out to be 0.0954.

In the case of GAGACCGCAACTGAAAAGTTGTTATCACTTGACGTAAGACACTTTGGAAGGGTTGAAGTTCTGCACGTAGAAGCAAAAGGC [T32A T49A], the fraction ligated was found to be 0.568.

As for GAGACCGCAACTGAAAAGTTGTTATCACTTGACCTAAGACACTTTGGATGGGTTGAAGTTCTGCACGTAGAAGCAAAAGGC [T32A G34C], the fraction ligated is 0.809.

For the variant GAGACCGCAACTGAAAAGTTGTTATCACTTGACTTAAGACACTTTGGATGGGTTGAAGTTCTGCACGTAGAAGCAAAAGGC [T32A G34T], the fraction ligated amounted to 0.823.

Regarding GAGACCGCAACTGAAAAGTTGTTATCACTTGACATAAGACACTTTGGATGGGTTGAAGTTCTGCACGTAGAAGCAAAAGGC [T32A G34A], the fraction ligated was found to be 0.809.
